Measured values: publication PMC4369733, “Design of a PDZbody, a bivalent binder of the E6 protein from human papillomavirus” (Scientific Reports, 2015)

T1: pseudo wild type SAP97 PDZ2 (residues 311-407; I342W, C378A) (human, UniProt Q12959 311-407, I342W | C378A)
T1 construct: SAP97 (also called human Dlg), second PDZ domain (PDZ2), residues 311-407; Residues of the thrombin site probably stay at the N-terminus after cleavage (surmised); also called pWT; source: E. coli BL21(DE3) pLysS, purified (nickel-Sepharose, thrombin digestion, nickel reload, Source 30Q); not shown: His tag, N-terminal, cleaved; lipoyl protein domain (Bacillus stearothermophilus), N-terminal, …
T1 sequence (looked up): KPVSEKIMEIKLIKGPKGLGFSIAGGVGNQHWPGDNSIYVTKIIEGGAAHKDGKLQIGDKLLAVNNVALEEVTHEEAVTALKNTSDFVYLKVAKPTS

B1: Lipo-E6_(18)-C: C-terminal domain of HPV18 E6 (residues 82-158) linked via the N-terminus to His-tagged lipoyl domain (domain or fragment)
chain: SDSVYGDTLEKLTNTGLYNLLIRCLRCQKPLNPAEKLRHLNEKRRFHNIAGHYRGQCHSCCNRARQERLQRRRETQV
notes: HPV18 E6 C-terminal domain, residues 82-158, UniProtKB P06463; A thrombin cleavage site (LVPRGS) stands between the lipoyl domain and the E6 domain and was not cut; also called HPV18 E6 C-terminal domain; source: E. coli BL21(DE3) pLysS, purified (nickel-Sepharose, Source 30Q; thrombin digestion omitted); not shown: His tag, N-terminal, kept; lipoyl protein domain (Bacillus stearothermophilus), …

Columns and labels:
[1] = molecular target: Lipo-E6_(18)-C: C-terminal domain of HPV18 E6 (residues 82-158) linked via the N-terminus to His-tagged lipoyl domain (HPV18) (UniProt P06463); assay: stopped-flow fluorescence kinetics; association: PDZ variant (6-20 µM) mixed with Lipo-E6_(18)-C (2 µM), Trp342 emission; 10°C, 50 mM potassium phosphate pH 7.5, 240 µM β-mercaptoethanol; kon from kobs versus PDZ concentration; Kd = koff/kon
[2] = molecular target: Lipo-E6_(18)-C: C-terminal domain of HPV18 E6 (residues 82-158) linked via the N-terminus to His-tagged lipoyl domain (HPV18) (UniProt P06463); assay: stopped-flow fluorescence kinetics; displacement: pre-formed complex of PDZ variant (0.75 µM) and Lipo-E6_(18)-C (0.75 µM) mixed with dansylated peptide (20, 150 and 300 µM); 10°C, 50 mM potassium phosphate pH 7.5, 240 µM β-mercaptoethanol; koff = kobs at high peptide
[3] = molecular target: PDZbody15 (E6AP helix, Gly-Ser linker of 10 residues, PDZϕ9) (UniProt Q12959); assay: ITC; full-length HPV16 E6 titrated into the PDZ variant or PDZbody; ITC200, 25°C, 20 mM sodium phosphate pH 6.8, 200 mM NaCl, 1 mM TCEP; single-site model
[4] = molecular target: PDZbody20 (E6AP helix, Gly-Ser linker of 15 residues, PDZϕ9) (UniProt Q12959); assay: as above
[5] = molecular target: PDZbody25 (E6AP helix, Gly-Ser linker of 20 residues, PDZϕ9) (UniProt Q12959); assay: as above
[6] = molecular target: PDZbody8 (E6AP helix, Gly-Ser linker of 3 residues, PDZϕ9) (UniProt Q12959); assay: as above
[7] = molecular target: pseudo wild type SAP97 PDZ2 (residues 311-407; I342W, C378A) (human) (UniProt Q12959); assay: as above
[8] = molecular target: PDZϕ9 (SAP97 PDZ2 pseudo wild type with L391F, K392M) (human) (UniProt Q12959); assay: as above
[9] = molecular target: T1, pseudo wild type SAP97 PDZ2 (residues …); assay: stopped-flow fluorescence kinetics; association: PDZ variant (6-20 µM) mixed with Lipo-E6_(18)-C (2 µM), Trp342 emission; 10°C, 50 mM potassium phosphate pH 7.5, 240 µM β-mercaptoethanol; kon from kobs versus PDZ concentration; Kd = koff/kon; settings: both partners purified
[10] = molecular target: T1, pseudo wild type SAP97 PDZ2 (residues …); assay: stopped-flow fluorescence kinetics; displacement: pre-formed complex of PDZ variant (0.75 µM) and Lipo-E6_(18)-C (0.75 µM) mixed with dansylated peptide (20, 150 and 300 µM); 10°C, 50 mM potassium phosphate pH 7.5, 240 µM β-mercaptoethanol; koff = kobs at high peptide; settings: both partners purified

Row | Molecule | Kd [1] | kon [1] | koff [2] | also measured
1 | PDZϕ1 (SAP97 PDZ2 pseudo wild type with E385R) (from UniProt Q12959 311-407) (designed binder) | 920 nM | 8.2e+06 M⁻¹ s⁻¹ | 7.5 s⁻¹ | –
2 | PDZϕ2 (SAP97 PDZ2 pseudo wild type with E385H, L391F, K392Q) (from UniProt Q12959 311-407) (designed binder) | 260 nM | 5.9e+06 M⁻¹ s⁻¹ | 1.5 s⁻¹ | –
3 | PDZϕ3 (SAP97 PDZ2 pseudo wild type with L391F, K392A) (from UniProt Q12959 311-407) (designed binder) | 160 nM | 4.6e+06 M⁻¹ s⁻¹ | 0.75 s⁻¹ | –
4 | PDZϕ4 (SAP97 PDZ2 pseudo wild type with E385H, K392R) (from UniProt Q12959 311-407) (designed binder) | 600 nM | 8.5e+06 M⁻¹ s⁻¹ | 5.1 s⁻¹ | –
5 | PDZϕ5 (SAP97 PDZ2 pseudo wild type with E385H, K392T) (from UniProt Q12959 311-407) (designed binder) | 780 nM | 4.9e+06 M⁻¹ s⁻¹ | 3.8 s⁻¹ | –
6 | PDZϕ6 (SAP97 PDZ2 pseudo wild type with E385K, K392Q) (from UniProt Q12959 311-407) (designed binder) | 2500 nM | 4e+06 M⁻¹ s⁻¹ | 10.2 s⁻¹ | –
7 | PDZϕ7 (SAP97 PDZ2 pseudo wild type with E385K, K392R) (from UniProt Q12959 311-407) (designed binder) | 610 nM | 8.9e+06 M⁻¹ s⁻¹ | 5.5 s⁻¹ | –
8 | PDZϕ8 (SAP97 PDZ2 pseudo wild type with E385T) (from UniProt Q12959 311-407) (designed binder) | 660 nM | 5.8e+06 M⁻¹ s⁻¹ | 3.8 s⁻¹ | –
9 | PDZϕ9 (SAP97 PDZ2 pseudo wild type with L391F, K392M) (from UniProt Q12959 311-407) (designed binder) | 93 nM | 5.9e+06 M⁻¹ s⁻¹ | 0.55 s⁻¹ | –
10 | full-length HPV16 E6 (from UniProt P03126 1-158) (natural protein) | – | – | – | Kd [3]: 160 nM; dH [3]: -16.5 kcal/mol; stoichiometry N [3]: 0.93; Kd [4]: 65 nM; dH [4]: -17 kcal/mol; stoichiometry N [4]: 0.94; Kd [5]: 79 nM; dH [5]: -19.8 kcal/mol; stoichiometry N [5]: 0.92; Kd [6]: 200 nM; dH [6]: -19.1 kcal/mol; stoichiometry N [6]: 0.76; Kd [7]: 6300 nM; dH [7]: -4.6 kcal/mol; stoichiometry N [7]: 0.75; Kd [8]: 910 nM; dH [8]: -9.9 kcal/mol; stoichiometry N [8]: 0.75
11 | B1 | – | – | – | Kd [9]: 540 nM; kon [9]: 6.2e+06 M⁻¹ s⁻¹; koff [10]: 3.3 s⁻¹
